Assay [1] deals with human ENPP1 on the cell surface (293T-ENPP1 cells, HepG2 cells) (human) (UniProt P22413). Description: flow cytometry on HepG2 cells, APC-A against SSC-A. (In flow cytometry, cells or beads pass a laser one at a time.)
The target is the same in assay [2]. The assay is described as follows: flow cytometry on 293T-ENPP1 cells, APC-A against SSC-A.

Chain of human ENPP1 on the cell surface (293T-ENPP1 cells, HepG2 cells) (human) (P22413 whole entry): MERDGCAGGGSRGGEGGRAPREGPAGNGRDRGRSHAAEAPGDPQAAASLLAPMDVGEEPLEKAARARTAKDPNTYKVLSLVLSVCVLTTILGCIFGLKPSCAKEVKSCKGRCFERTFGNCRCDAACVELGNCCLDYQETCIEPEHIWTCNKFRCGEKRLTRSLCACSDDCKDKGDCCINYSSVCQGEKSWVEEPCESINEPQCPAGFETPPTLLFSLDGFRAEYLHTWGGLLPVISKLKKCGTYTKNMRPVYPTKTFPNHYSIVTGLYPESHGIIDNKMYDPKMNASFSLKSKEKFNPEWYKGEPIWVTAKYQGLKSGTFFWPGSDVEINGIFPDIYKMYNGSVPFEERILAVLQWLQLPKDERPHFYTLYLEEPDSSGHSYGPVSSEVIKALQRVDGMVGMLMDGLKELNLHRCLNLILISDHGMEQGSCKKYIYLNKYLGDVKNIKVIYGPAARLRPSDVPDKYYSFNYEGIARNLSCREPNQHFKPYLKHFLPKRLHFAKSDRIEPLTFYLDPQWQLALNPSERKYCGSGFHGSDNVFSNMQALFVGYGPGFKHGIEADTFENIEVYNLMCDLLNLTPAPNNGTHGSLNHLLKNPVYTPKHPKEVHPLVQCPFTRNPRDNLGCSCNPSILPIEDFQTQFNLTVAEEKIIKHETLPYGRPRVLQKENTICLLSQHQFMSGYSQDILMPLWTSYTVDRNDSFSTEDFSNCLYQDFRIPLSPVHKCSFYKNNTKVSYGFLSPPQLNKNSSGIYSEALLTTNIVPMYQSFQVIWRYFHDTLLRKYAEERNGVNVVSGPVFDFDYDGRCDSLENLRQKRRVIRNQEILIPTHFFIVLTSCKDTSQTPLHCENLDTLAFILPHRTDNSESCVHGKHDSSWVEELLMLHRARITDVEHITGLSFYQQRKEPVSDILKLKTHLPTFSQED

Isotype Ctrl (antibody): the percent of cells in the APC-positive gate in assay [1] and in assay [2] was 0.4% throughout.

For the origin of these results see US20250177530A1, “MOLECULES THAT BIND TO ENPP1 POLYPEPTIDES” (UNIVERSITY OF PITTSBURGH - OF THE COMMONWEALTH SYSTEM OF …, priority 2022, published 2025).
